Source: the supplement of paper PMC10126150
± gives the standard deviation of the averaged measurements.
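Note: ATP exposure 15 min at 22 °C before imaging.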

These sequences were tested on ATP (assay: switch fluorescence ratio, 500 uM ATP over buffer (Cy3 cluster intensity, sum of 5 cycles each) (fold (ratio)); higher = stronger signal-on switching upon ATP binding; sequences stand for … in TCGTCGGCAGCGTCAGATGTGTATAAGAGACAGTTTTTTTTTTTTTTTTTTTTTTTTT…TC). Conditions: aptamer strand: ATP DNA aptamer (quencher-CACCTGGGGGAGTATTGCGGAGGAAGG + anchor), 100 nM annealed; ATP concentration: 500 uM.
Method in brief: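 The quencher-labelled ATP aptamer, at 100 nM, was annealed to Cy3-labelled switching-strand clusters on a modified Illumina MiSeq flow-cell. The clusters were imaged in selection buffer, then after 15 min with 500 uM ATP at 22 °C, and this buffer/ATP cycle ran five times with NaOH stripping and re-annealing between runs. Per-cluster fluorescence ratios, summed target-cycle over summed buffer-cycle Cy3 intensity, were averaged per switch-domain sequence. Clusters outside 100-1000 RFU were excluded.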
With TTTTGCTTGT the switch fluorescence ratio was 0.996 ± 0.015. With TTGGTGGGGA the switch fluorescence ratio was 0.987 ± 0.042. Sequence TTTGTGACAG has a switch fluorescence ratio of 1.02 ± 0.018. Work on GCTACAGGGG yielded a switch fluorescence ratio of 1.18 ± 0.25. In the case of TATCGGCGAG, the switch fluorescence ratio is reported as 1.02 ± 0.046. In the case of AGAGTTTCGA, the switch fluorescence ratio is reported as 1.01 ± 0.034. For GGAGTAGCAG, the switch fluorescence ratio was 1.02 ± 0.074. AGGTTGTGAC was tested, and the switch fluorescence ratio was 0.989 ± 0.029. TTGTCAGACT was tested, and the switch fluorescence ratio was 0.9801 ± 0.0028. In the case of TTTTGACATT, the switch fluorescence ratio is reported as 1.05 ± 0.032. TGTGGGGGCG gave a switch fluorescence ratio of 1.01 ± 0.017. With AATATACTTT the switch fluorescence ratio was 1.04 ± 0.051. Work on AACATGAGGA yielded a switch fluorescence ratio of 1 ± 0.02. TAGGGCGCAG was tested, and the switch fluorescence ratio was 0.959 ± 0.028. For TCTCGTAACT, the switch fluorescence ratio was 1 ± 0.044. GAAGATTGGT gave a switch fluorescence ratio of 0.981 ± 0.028. TGCTTTCATG showed a switch fluorescence ratio of 1.01 ± 0.027. In the case of TGGGTTAGCG, the switch fluorescence ratio is reported as 0.995 ± 0.041. GCTTTACACC gave a switch fluorescence ratio of 1.19 ± 0.092. With TGGGTATTCC the switch fluorescence ratio was 1.021 ± 0.0085. Sequence TTGCTCTGGA has a switch fluorescence ratio of 1.02 ± 0.015. GTATAAAGGG showed a switch fluorescence ratio of 1.02 ± 0.048. ATCTAAAGTT was tested, and the switch fluorescence ratio was 1.023 ± 0.0016. GCGTGGTCAG was tested, and the switch fluorescence ratio was 0.97027 ± 0.00034. With TTAGGAAGTG the switch fluorescence ratio was 0.999 ± 0.017. GGGGATAAGA showed a switch fluorescence ratio of 0.985 ± 0.036. In the case of GATTTGGCTG, the switch fluorescence ratio is reported as 0.986 ± 0.019. With GTGTAAATTT the switch fluorescence ratio was 0.991 ± 0.04. With CGTACGTTG the switch fluorescence ratio was 1 ± 0.022. In the case of GACGTCTGGG, the switch fluorescence ratio is reported as 0.986 ± 0.013. GGCGGTTACT gave a switch fluorescence ratio of 1.04 ± 0.015. In the case of GAGAATCACG, the switch fluorescence ratio is reported as 0.9961 ± 0.0024. With GATCGATTG the switch fluorescence ratio was 1.05 ± 0.051. In the case of TTAGTTAGTT, the switch fluorescence ratio is reported as 0.98 ± 0.016. Sequence ACATGAGCGG has a switch fluorescence ratio of 0.971 ± 0.019. Sequence CGGGGCGCGG has a switch fluorescence ratio of 0.977 ± 0.024. Sequence TGGCGCACGG has a switch fluorescence ratio of 0.953 ± 0.017. In the case of TTAGGGGGCC, the switch fluorescence ratio is reported as 1.07 ± 0.035. Sequence CCGGTAAGGA has a switch fluorescence ratio of 0.994 ± 0.015. TAAGAGAGAA showed a switch fluorescence ratio of 0.986 ± 0.021. With AGGTGTTTTG the switch fluorescence ratio was 1.02 ± 0.0087. In the case of TAGTAAAGGT, the switch fluorescence ratio is reported as 1.022 ± 0.0068. AGGCTCATGG gave a switch fluorescence ratio of 1.028 ± 0.0089. For TTTGGTCGC, the switch fluorescence ratio was 0.9851 ± 0.0012. GTTGTTGTTT was tested, and the switch fluorescence ratio was 0.999 ± 0.0094. TTTTCGCTAT was tested, and the switch fluorescence ratio was 2.29 ± 1.6. Work on AATGGCCGGC yielded a switch fluorescence ratio of 0.987 ± 0.014. TATTTTATTA showed a switch fluorescence ratio of 1.011 ± 0.0085. Work on ATGATGGCAA yielded a switch fluorescence ratio of 1.03 ± 0.027. TGTGGGGCGG gave a switch fluorescence ratio of 1.01 ± 0.051. CTTGGGAATA showed a switch fluorescence ratio of 1.01 ± 0.05. Sequence CGGGGTGTGC has a switch fluorescence ratio of 1.01 ± 0.031. TGTGCTATTT gave a switch fluorescence ratio of 1.09 ± 0.17. In the case of GGAGAGCGCG, the switch fluorescence ratio is reported as 0.976 ± 0.067. Sequence TTGGGCTTTC has a switch fluorescence ratio of 1.04 ± 0.03. Work on GGTACTTGTT yielded a switch fluorescence ratio of 1.05 ± 0.052. GCTGTTTTTC was tested, and the switch fluorescence ratio was 0.966 ± 0.03. CGGTAGGGGC showed a switch fluorescence ratio of 0.968 ± 0.015. For GCAGACGTTC, the switch fluorescence ratio was 1.012 ± 0.005. TAATTAACAT was tested, and the switch fluorescence ratio was 0.9883 ± 0.0092. Sequence CCCAGGCGGA has a switch fluorescence ratio of 1.65 ± 0.78. TTTCATGATC was tested, and the switch fluorescence ratio was 1 ± 0.026. ATGGAGCTAC gave a switch fluorescence ratio of 4.67 ± 1.3. CGCGGAGCGC was tested, and the switch fluorescence ratio was 1.17 ± 0.15. TTTTTCGCTT showed a switch fluorescence ratio of 1.06 ± 0.077. AGGAGGGCGT was tested, and the switch fluorescence ratio was 0.969 ± 0.018. GGACACAGGC gave a switch fluorescence ratio of 1.01 ± 0.023. GGAGAGGTTT was tested, and the switch fluorescence ratio was 1.05 ± 0.059. Sequence ATCACAATCA has a switch fluorescence ratio of 1.02 ± 0.023. ATCAAGGACG was tested, and the switch fluorescence ratio was 1.02 ± 0.05. In the case of AAACGGGTTC, the switch fluorescence ratio is reported as 1.01 ± 0.036. AATAGTACTG was tested, and the switch fluorescence ratio was 1 ± 0.071. With GGTTATTGCT the switch fluorescence ratio was 1.02 ± 0.0033. In the case of TAGCTTTTTA, the switch fluorescence ratio is reported as 1 ± 0.026. CGAGGCCGGG was tested, and the switch fluorescence ratio was 1.01 ± 0.015. CAAGATGGGG was tested, and the switch fluorescence ratio was 0.95 ± 0.023. CATTAATTTT was tested, and the switch fluorescence ratio was 0.968 ± 0.044. For GTTGATGTAG, the switch fluorescence ratio was 0.984 ± 0.028. For GCAGCTGGTT, the switch fluorescence ratio was 0.994 ± 0.026. AAGTAGGCAC gave a switch fluorescence ratio of 1.022 ± 0.0018. Work on GTCGTCAAGT yielded a switch fluorescence ratio of 1.006 ± 0.0073. Work on GAGGGACTAA yielded a switch fluorescence ratio of 0.9972 ± 0.0095. AAAAGGGGTC was tested, and the switch fluorescence ratio was 0.9959 ± 0.0053. CTCACTTGGG gave a switch fluorescence ratio of 1.024 ± 0.0012. For TTTTGGGGC, the switch fluorescence ratio was 1.04 ± 0.013. Work on TTCTATTTCG yielded a switch fluorescence ratio of 1 ± 0.019. Work on GGGGTTATCT yielded a switch fluorescence ratio of 1.01 ± 0.026. TCAGTCATTA gave a switch fluorescence ratio of 0.989 ± 0.016. TAAGGGCAAA was tested, and the switch fluorescence ratio was 1.02 ± 0.032. In the case of TTTGTACTTC, the switch fluorescence ratio is reported as 1.02 ± 0.049. TAGCTAATTT gave a switch fluorescence ratio of 0.979 ± 0.027. CATTGCGGGA showed a switch fluorescence ratio of 1.02 ± 0.024. AAATTCGTAT was tested, and the switch fluorescence ratio was 0.9976 ± 0.0068. In the case of TCGGGTCGCC, the switch fluorescence ratio is reported as 1 ± 0.044. GATGAATGGA gave a switch fluorescence ratio of 0.959 ± 0.011. TTTGATATTT gave a switch fluorescence ratio of 1.11 ± 0.22. For AAATCGAAAC, the switch fluorescence ratio was 1.03 ± 0.038. For ATTCCTCAGC, the switch fluorescence ratio was 2.39 ± 0.49. GTATTAAAGC was tested, and the switch fluorescence ratio was 1.024 ± 0.0052. Work on GCCGAAAATA yielded a switch fluorescence ratio of 0.988 ± 0.012. CCGTTTTTTG gave a switch fluorescence ratio of 1 ± 0.032. TTGTGAAGGC was tested, and the switch fluorescence ratio was 1.04 ± 0.015. For TATTGGATTA, the switch fluorescence ratio was 1.01 ± 0.026. In the case of AAACGCAACC, the switch fluorescence ratio is reported as 1.57 ± 0.089. Work on TTAGACCGAA yielded a switch fluorescence ratio of 1.031 ± 0.0088. With GGGGCAGGTG the switch fluorescence ratio was 1.27 ± 0.39. CAGGATGTGC gave a switch fluorescence ratio of 0.992 ± 0.032. In the case of GGGGTTTCTC, the switch fluorescence ratio is reported as 1.02 ± 0.031. CTAGGGGTTC was tested, and the switch fluorescence ratio was 1.01 ± 0.046. TGTCCTCAAT showed a switch fluorescence ratio of 1.22 ± 0.02. For CTGGCAACGA, the switch fluorescence ratio was 1.06 ± 0.013. GGGGTTGCTG showed a switch fluorescence ratio of 1 ± 0.024. AAATGACGTC showed a switch fluorescence ratio of 1.01 ± 0.023. AGTACGGGGG showed a switch fluorescence ratio of 0.992 ± 0.021. TAAAGGTAGT gave a switch fluorescence ratio of 1 ± 0.032. With AGGCAGGGAT the switch fluorescence ratio was 1.01 ± 0.057. Work on GTTGGTTAGA yielded a switch fluorescence ratio of 0.9776 ± 0.005. CTAGGGGGTG was tested, and the switch fluorescence ratio was 1.03 ± 0.062. GCTAAAAGCT was tested, and the switch fluorescence ratio was 1.02 ± 0.011. TGAATTCTTT gave a switch fluorescence ratio of 0.968 ± 0.041. Work on TTATTTGGTC yielded a switch fluorescence ratio of 1 ± 0.056. TAAAGATAAG showed a switch fluorescence ratio of 0.98 ± 0.024. Sequence CACCTGGGGG has a switch fluorescence ratio of 1.13 ± 0.11. For AGTTCGGTGC, the switch fluorescence ratio was 0.9799 ± 0.0012. Sequence CCAATCTGAC has a switch fluorescence ratio of 1.3 ± 0.14. Sequence CCAACTTTAC has a switch fluorescence ratio of 1.57 ± 0.037. Work on TTTCCGACGG yielded a switch fluorescence ratio of 1.57 ± 0.79. For AGTGTTGGCC, the switch fluorescence ratio was 1.023 ± 0.0089. In the case of CGCTGCACAT, the switch fluorescence ratio is reported as 2.21 ± 0.045. Work on CATTACGTGC yielded a switch fluorescence ratio of 0.996 ± 0.016. For ATTTGGAGTC, the switch fluorescence ratio was 1 ± 0.018. TCAGAGTGCT showed a switch fluorescence ratio of 1.03 ± 0.025. GATCATTGAC showed a switch fluorescence ratio of 1.066 ± 0.0057. TCGTGAAGGG was tested, and the switch fluorescence ratio was 0.979 ± 0.051. Sequence GCACGAGCCC has a switch fluorescence ratio of 1.316 ± 0.008. Work on GGATGTGCG yielded a switch fluorescence ratio of 0.961 ± 0.05. In the case of TAATCGAAGC, the switch fluorescence ratio is reported as 1 ± 0.048. With CTGTCTATGC the switch fluorescence ratio was 1.33 ± 0.049. In the case of TGGGAAGAGG, the switch fluorescence ratio is reported as 1.01 ± 0.026. Work on AATGGTGGGT yielded a switch fluorescence ratio of 1.01 ± 0.036. In the case of GTAGCCCGGG, the switch fluorescence ratio is reported as 0.993 ± 0.026. Work on GAGTTAGTAG yielded a switch fluorescence ratio of 0.966 ± 0.02. With CAGTAATTGC the switch fluorescence ratio was 1.05 ± 0.023. In the case of ATGGGGTT, the switch fluorescence ratio is reported as 0.992 ± 0.0053. CAGCTTCCCC showed a switch fluorescence ratio of 1.29 ± 0.42. ACAGCGGGGG showed a switch fluorescence ratio of 1.03 ± 0.045. In the case of ATACGTGGGA, the switch fluorescence ratio is reported as 1.01 ± 0.032. Work on GAGTATGGGA yielded a switch fluorescence ratio of 0.983 ± 0.034. With ATAAGATTTT the switch fluorescence ratio was 1.01 ± 0.048. With TCTCTTGCGG the switch fluorescence ratio was 1.1 ± 0.2. Work on TACGAGGGTG yielded a switch fluorescence ratio of 1.06 ± 0.034. GCATAGGGCG was tested, and the switch fluorescence ratio was 1.01 ± 0.018. Sequence TCTCGAGGGA has a switch fluorescence ratio of 0.981 ± 0.01. Work on TAGAGCTGTT yielded a switch fluorescence ratio of 0.969 ± 0.031. TCCGGTGTTT gave a switch fluorescence ratio of 1.081 ± 0.0036. For GGGTTTAGTG, the switch fluorescence ratio was 0.962 ± 0.014. For TACTGATTCA, the switch fluorescence ratio was 1.02 ± 0.025.
